Our source for the rearrangement of microtubules values is PMC4270767 (PLoS ONE, 2014).

The labels stand for the following.
B1: PSPD: phosphoserine phosphatase domain of MtSerB2 alone (residues 165–409) (protein, UniProt O53289 165-409, looked up, fragment)
chain: VDVAVEDYGLAWRTKRLIVFDVDSTLVQGEVIEMLAARAGAQGQVAAITEAAMRGELDFAESLQRRVATLAGLPATVIDDVAEQLELMPGARTTIRTLRRLGFRCGVVSGGFRRIIEPLARELMLDFVASNELEIVDGILTGRVVGPIVDRPGKAKALRDFASQYGVPMEQTVAVGDGANDIDMLGAAGLGIAFNAKPALREVADASLSHPYLDTVLFLLGVTRGEIEAADAGDCGVRRVEIPAD
modifications: phosphoserine phosphatase domain
B2: ACT-domains: ACT domains of MtSerB2 alone (residues 1–165) (protein, UniProt O53289 1-165, looked up, fragment)
chain: MPAKVSVLITVTGMDQPGVTSALFEVLAQHGVELLNVEQVVIRGRLTLGVLVSCPLDVADGTALRDDVAAAIHGVGLDVAIERSDDLPIIRQPSTHTIFVLGRPITAGAFSAVARGVAALGVNIDFIRGISDYPVTGLELRVSVPPGCVGPLQIALTKVAAEEHV
modifications: ACT domains
B3: Wild-type: recombinant hexa-his-tagged M. tuberculosis phosphoserine phosphatase SerB2 (Rv3042c) (protein, UniProt O53289 1-409, looked up)
chain: MPAKVSVLITVTGMDQPGVTSALFEVLAQHGVELLNVEQVVIRGRLTLGVLVSCPLDVADGTALRDDVAAAIHGVGLDVAIERSDDLPIIRQPSTHTIFVLGRPITAGAFSAVARGVAALGVNIDFIRGISDYPVTGLELRVSVPPGCVGPLQIALTKVAAEEHVDVAVEDYGLAWRTKRLIVFDVDSTLVQGEVIEMLAARAGAQGQVAAITEAAMRGELDFAESLQRRVATLAGLPATVIDDVAEQLELMPGARTTIRTLRRLGFRCGVVSGGFRRIIEPLARELMLDFVASNELEIVDGILTGRVVGPIVDRPGKAKALRDFASQYGVPMEQTVAVGDGANDIDMLGAAGLGIAFNAKPALREVADASLSHPYLDTVLFLLGVTRGEIEAADAGDCGVRRVEIPAD
modifications: full-length His6 tag

The experiment relates to THP-1 cells. Format: cell-based. To be noted: 100 µg of purified protein, 30 minutes and 2 hours.
As for B1, the rearrangement of microtubules entry is recorded as “significant”.
In the case of B2, the rearrangement of microtubules result was “almost no re-arrangement of the microtubules”.
For B3, the rearrangement of microtubules result is “striking rearrangement of microtubules”.
